B1: CCDC89 (parent)
chain: LNAELEEKMMQEAEKLKAQGEYSR

Variants of: B1
Test: protein stability index of a GFP-peptide fusion (GPS, HEK-293T) (PSI 1-6); higher = more stable
Details: c terminus: a fixed tail appended
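Also: lentivirally expressed fusions sorted by FACS into six bins by GFP to DsRed ratio, PSI derived from sequencing read proportions per bin multiplied by bin number.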

Variant	protein stability index
LNAEPEEKMMQEAEKLKAQGEYSR	5.58
LNAEQEEKMMQEAEKLKAQGEYSR	5.55
LNAENEEKMMQEAEKLKAQGEYSR	5.44
LNAEKEEKMMQEAEKLKAQGEYSR	4.53
LNAESEEKMMQEAEKLKAQGEYSR	5.38
LNAEVEEKMMQEAEKLKAQGEYSR	5.09
LNAEREEKMMQEAEKLKAQGEYSR	4.7
LNAEYEEKMMQEAEKLKAQGEYSR	4.33
LNAEMEEKMMQEAEKLKAQGEYSR	5.21
LNAEIEEKMMQEAEKLKAQGEYSR	4.88
LNAETEEKMMQEAEKLKAQGEYSR	5.47
LNAEWEEKMMQEAEKLKAQGEYSR	4.71
LNAELEEKMMQEAEALKAQGEYSR	5.41
LNAELEEKMMQEAEWLKAQGEYSR	4.41
LNAELEEKMMQEAELLKAQGEYSR	4.99
LNAELEEKMMQEAEGLKAQGEYSR	5.26
LNAELEEKMMQEAEMLKAQGEYSR	5.82
LNAELEEKMMQEAEHLKAQGEYSR	5.2
LNAELEEKMMQEAEYLKAQGEYSR	4.3
LNAELEEKMMQEAENLKAQGEYSR	4.71
LNAELEEKMMQEAEPLKAQGEYSR	5.38
LNAELEEKMMQEAEQLKAQGEYSR	5.41
LNAELEEKMMQEAECLKAQGEYSR	5.03
LNAELEEKMMQEAEDLKAQGEYSR	5.58

Variant	protein stability index
LNAELEEKMMQEAERLKAQGEYSR	4.84
LNAELEEKMMQEAESLKAQGEYSR	4.38
LNAELEEKMMQEAEVLKAQGEYSR	4.78
LNAELEEKMMQEAEELKAQGEYSR	5.06
LNAELWEKMMQEAEKLKAQGEYSR	3.56
LNAELNEKMMQEAEKLKAQGEYSR	4.71
LNAELPEKMMQEAEKLKAQGEYSR	4.8
LNAELKEKMMQEAEKLKAQGEYSR	4.64
LNAELQEKMMQEAEKLKAQGEYSR	4.65
LNAELLEKMMQEAEKLKAQGEYSR	2.68
LNAELIEKMMQEAEKLKAQGEYSR	4.08
LNAELHEKMMQEAEKLKAQGEYSR	4.79
LNAELMEKMMQEAEKLKAQGEYSR	4.42
LNAELSEKMMQEAEKLKAQGEYSR	4.96
LNAELGEKMMQEAEKLKAQGEYSR	5.15
LNAELCEKMMQEAEKLKAQGEYSR	4.69
LNAELTEKMMQEAEKLKAQGEYSR	3.27
LNAELVEKMMQEAEKLKAQGEYSR	3.04
LNAELFEKMMQEAEKLKAQGEYSR	3.39
LNAELREKMMQEAEKLKAQGEYSR	4.36
LNAELETKMMQEAEKLKAQGEYSR	4.74
LNAELECKMMQEAEKLKAQGEYSR	5
LNAELEQKMMQEAEKLKAQGEYSR	4.18
LNAELEHKMMQEAEKLKAQGEYSR	4.5

Variant	protein stability index
LNAELEIKMMQEAEKLKAQGEYSR	4.64
LNAELERKMMQEAEKLKAQGEYSR	3.8
LNAELEFKMMQEAEKLKAQGEYSR	4.97
LNAELEGKMMQEAEKLKAQGEYSR	4.35
LNAELEDKMMQEAEKLKAQGEYSR	4.81
LNAELEYKMMQEAEKLKAQGEYSR	4.61
LNAELEAKMMQEAEKLKAQGEYSR	4.87
LNAELEMKMMQEAEKLKAQGEYSR	4.54
LNAELESKMMQEAEKLKAQGEYSR	4.01
LNAELEVKMMQEAEKLKAQGEYSR	5
LNAELEEKMMQEAEKLWAQGEYSR	3.79
LNAELEEKMMQEAEKLYAQGEYSR	4.43
LNAELEEKMMQEAEKLGAQGEYSR	4.93
LNAELEEKMMQEAEKLQAQGEYSR	5.22
LNAELEEKMMQEAEKLRAQGEYSR	4.41
LNAELEEKMMQEAEKLIAQGEYSR	4.72
LNAELEEKMMQEAEKLLAQGEYSR	4.54
LNAELEEKMMQEAEKLVAQGEYSR	4.4
LNAELEEKMMQEAEKLCAQGEYSR	4.02
LNAELEEKMMQEAEKLHAQGEYSR	3.87
LNAELEEKMMQEAEKLDAQGEYSR	5.47
LNAELEEKMMQEAEKLFAQGEYSR	4.3
LNAELEEKMMQEAEKLPAQGEYSR	5.65
LNAELEEKMLQEAEKLKAQGEYSR	5.46

Variant	protein stability index
LNAELEEKMRQEAEKLKAQGEYSR	5.25
LNAELEEKMWQEAEKLKAQGEYSR	4.7
LNAELEEKMDQEAEKLKAQGEYSR	5.08
LNAELEEKMTQEAEKLKAQGEYSR	5.42
LNAELEEKMHQEAEKLKAQGEYSR	5.11
LNAELEEKMKQEAEKLKAQGEYSR	5.08
LNAELEEKMSQEAEKLKAQGEYSR	5.65
LNAELEEKMVQEAEKLKAQGEYSR	5.13
LNAELEEKMYQEAEKLKAQGEYSR	5.15
LNAELEEKMNQEAEKLKAQGEYSR	5.34
LNAELEEKMEQEAEKLKAQGEYSR	5.39
LNAELEEKMAQEAEKLKAQGEYSR	5.55
LNAELEEKMMQEAEKCKAQGEYSR	5.36
LNAELEEKMMQEAEKKKAQGEYSR	4.85
LNAELEEKMMQEAEKQKAQGEYSR	4.65
LNAELEEKMMQEAEKYKAQGEYSR	4.37
LNAELEEKMMQEAEKEKAQGEYSR	5.79
LNAELEEKMMQEAEKTKAQGEYSR	5.14
LNAELEEKMMQEAEKAKAQGEYSR	5.1
LNAELEEKMMQEAEKSKAQGEYSR	5.76
LNAELEEKMMQEAEKWKAQGEYSR	4.6
LNAELEEKMMQEAEKPKAQGEYSR	5.68
LNAELEEKMMQEAEKIKAQGEYSR	5.82
LNAELEEKMMQEAEKGKAQGEYSR	5.09

Variant	protein stability index
LNAELEEKMMQEAEKDKAQGEYSR	5.77
LNAELEEKMMQEAEKNKAQGEYSR	5.17
LNAELEEKMMQEAEKVKAQGEYSR	4.97
LNAELEEKMMQEMEKLKAQGEYSR	5
LNAELEEKMMQESEKLKAQGEYSR	4.68
LNAELEEKMMQEDEKLKAQGEYSR	5.8
LNAELEEKMMQEHEKLKAQGEYSR	4.85
LNAELEEKMMQEVEKLKAQGEYSR	4.64
LNAELEEKMMQECEKLKAQGEYSR	4.94
LNAELEEKMMQEIEKLKAQGEYSR	4.38
LNAELEEKMMQEKEKLKAQGEYSR	5.08
LNAELEEKMMQEGEKLKAQGEYSR	4.84
LNAELEEKMMQETEKLKAQGEYSR	5.26
LNAELEEKMMQEQEKLKAQGEYSR	4.5
LNAELEEKMMQEEEKLKAQGEYSR	5.71
LNAELEEKMMQEFEKLKAQGEYSR	4.49
LNAELEEKMMQEWEKLKAQGEYSR	4.13
LNAELEEKMMQEYEKLKAQGEYSR	5.28
LNAELEEKMMQEREKLKAQGEYSR	4.99
LNAELEEKMMYEAEKLKAQGEYSR	4.86
LNAELEEKMMTEAEKLKAQGEYSR	5.67
LNAELEEKMMMEAEKLKAQGEYSR	4.18
LNAELEEKMMREAEKLKAQGEYSR	4.76
LNAELEEKMMDEAEKLKAQGEYSR	5.7

Variant	protein stability index
LNAELEEKMMKEAEKLKAQGEYSR	4.94
LNAELEEKMMCEAEKLKAQGEYSR	5.38
LNAELEEKMMEEAEKLKAQGEYSR	5.55
LNAELEEKMMIEAEKLKAQGEYSR	4.96
LNAELEEKMMLEAEKLKAQGEYSR	3.99
LNAELEEKMMFEAEKLKAQGEYSR	4.14
LNAELEEKMMHEAEKLKAQGEYSR	4.84
LNAELEEKMMPEAEKLKAQGEYSR	4.75
LNAELEEKMMGEAEKLKAQGEYSR	5.18
LNAELEEKMMNEAEKLKAQGEYSR	5.04
LNAELEEKMMWEAEKLKAQGEYSR	4.22
LNAELEEKMMSEAEKLKAQGEYSR	5.49
LNAELEEKMMVEAEKLKAQGEYSR	5.09
LNAELEEKLMQEAEKLKAQGEYSR	3.96
LNAELEEKQMQEAEKLKAQGEYSR	4.79
LNAELEEKNMQEAEKLKAQGEYSR	5.1
LNAELEEKWMQEAEKLKAQGEYSR	5.04
LNAELEEKFMQEAEKLKAQGEYSR	4.97
LNAELEEKCMQEAEKLKAQGEYSR	5.52
LNAELEEKDMQEAEKLKAQGEYSR	4.89
LNAELEEKHMQEAEKLKAQGEYSR	5.95
LNAELEEKKMQEAEKLKAQGEYSR	3.98
LNAELEEKTMQEAEKLKAQGEYSR	5.23
LNAELEEKIMQEAEKLKAQGEYSR	5.12

Variant	protein stability index
LNAELEEKPMQEAEKLKAQGEYSR	5.53
LNAELEEKAMQEAEKLKAQGEYSR	5.2
LNAELEEKGMQEAEKLKAQGEYSR	5.05
LNAELEEKRMQEAEKLKAQGEYSR	5.12
LNAELEEKMMQEAEKLKDQGEYSR	4.95
LNAELEEKMMQEAEKLKCQGEYSR	4.79
LNAELEESMMQEAEKLKAQGEYSR	3.82
LNAELEEHMMQEAEKLKAQGEYSR	5.36
LNAELEECMMQEAEKLKAQGEYSR	5.15
LNAELEEIMMQEAEKLKAQGEYSR	4.25
LNAELEEVMMQEAEKLKAQGEYSR	4.86
LNAELEEDMMQEAEKLKAQGEYSR	4.78
LNAELEELMMQEAEKLKAQGEYSR	5.19
LNAELEERMMQEAEKLKAQGEYSR	4.98
LNAELEEMMMQEAEKLKAQGEYSR	4.92
LNAELEEPMMQEAEKLKAQGEYSR	5.12
LNAELEENMMQEAEKLKAQGEYSR	4.49
LNAELEEYMMQEAEKLKAQGEYSR	4.46
LNAELEEWMMQEAEKLKAQGEYSR	4.5
LNAELEEQMMQEAEKLKAQGEYSR	5.02
LNAELEEAMMQEAEKLKAQGEYSR	4.9
LNAELEEKMMQPAEKLKAQGEYSR	5.4
LNAELEEKMMQLAEKLKAQGEYSR	2.92
LNAELEEKMMQCAEKLKAQGEYSR	4.38

Variant	protein stability index
LNAELEEKMMQTAEKLKAQGEYSR	4.4
LNAELEEKMMQAAEKLKAQGEYSR	4.42
LNAELEEKMMQIAEKLKAQGEYSR	3.28
LNAELEEKMMQWAEKLKAQGEYSR	4.42
LNAELEEKMMQFAEKLKAQGEYSR	3.56
LNAELEEKMMQNAEKLKAQGEYSR	4.75
LNAELEEKMMQVAEKLKAQGEYSR	4.12
LNAELEEKMMQRAEKLKAQGEYSR	4.26
LNAELEEKMMQYAEKLKAQGEYSR	3.47
LNAELEEKMMQKAEKLKAQGEYSR	4.67
LNAELEEKMMQEALKLKAQGEYSR	4.5
LNAELEEKMMQEAGKLKAQGEYSR	3.59
LNAELEEKMMQEANKLKAQGEYSR	4.66
LNAELEEKMMQEAFKLKAQGEYSR	4.05
LNAELEEKMMQEAIKLKAQGEYSR	4.27
LNAELEEKMMQEADKLKAQGEYSR	5.19
LNAELEEKMMQEAHKLKAQGEYSR	5.41
LNAELEEKMMQEAQKLKAQGEYSR	5.15
LNAELEEKMMQEAAKLKAQGEYSR	4
LNAELEEKMMQEACKLKAQGEYSR	4.33
